One assay addresses rat HER2 (Rattus norvegicus, UniProt P06494). The assay is described as follows: Binding of antibody to rat HER2.
Another assay has as its target HER2 (Homo sapiens, UniProt P04626). Briefly: Inhibition of HER2 functional activity in vitro.

rat HER2, sequence (P06494 23-1257): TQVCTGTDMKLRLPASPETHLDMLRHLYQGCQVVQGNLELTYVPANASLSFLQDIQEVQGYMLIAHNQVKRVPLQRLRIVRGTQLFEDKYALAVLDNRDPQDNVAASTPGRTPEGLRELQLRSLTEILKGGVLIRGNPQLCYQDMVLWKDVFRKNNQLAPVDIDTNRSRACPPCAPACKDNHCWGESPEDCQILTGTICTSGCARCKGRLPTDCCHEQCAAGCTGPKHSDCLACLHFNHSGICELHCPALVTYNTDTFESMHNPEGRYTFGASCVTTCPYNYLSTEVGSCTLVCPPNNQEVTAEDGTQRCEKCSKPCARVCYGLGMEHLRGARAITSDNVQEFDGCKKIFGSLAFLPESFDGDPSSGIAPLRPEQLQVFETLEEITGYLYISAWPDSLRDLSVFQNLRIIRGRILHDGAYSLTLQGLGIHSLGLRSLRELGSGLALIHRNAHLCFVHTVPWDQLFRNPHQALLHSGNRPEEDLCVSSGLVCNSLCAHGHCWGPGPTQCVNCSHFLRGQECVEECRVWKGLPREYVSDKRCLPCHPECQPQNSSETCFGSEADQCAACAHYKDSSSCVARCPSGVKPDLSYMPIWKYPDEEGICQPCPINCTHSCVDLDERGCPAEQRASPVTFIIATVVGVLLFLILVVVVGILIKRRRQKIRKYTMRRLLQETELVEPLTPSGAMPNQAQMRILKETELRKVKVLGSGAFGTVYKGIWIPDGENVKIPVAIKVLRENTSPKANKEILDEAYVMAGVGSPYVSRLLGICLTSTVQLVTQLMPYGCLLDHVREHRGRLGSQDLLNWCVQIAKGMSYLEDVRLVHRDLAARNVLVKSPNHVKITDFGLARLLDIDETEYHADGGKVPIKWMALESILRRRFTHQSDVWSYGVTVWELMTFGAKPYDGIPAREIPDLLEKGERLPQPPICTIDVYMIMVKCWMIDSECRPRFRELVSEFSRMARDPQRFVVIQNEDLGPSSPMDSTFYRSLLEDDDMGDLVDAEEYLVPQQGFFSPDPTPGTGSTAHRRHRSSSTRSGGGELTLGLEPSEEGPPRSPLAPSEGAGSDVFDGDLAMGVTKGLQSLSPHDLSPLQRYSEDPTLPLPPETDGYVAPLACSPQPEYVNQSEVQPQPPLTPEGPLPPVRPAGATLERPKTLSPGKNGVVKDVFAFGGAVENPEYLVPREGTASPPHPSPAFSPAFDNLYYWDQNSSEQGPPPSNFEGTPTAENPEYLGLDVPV

With “XMT-1519: anti-Her2 antibody disclosed in U.S. Pat. No. 9,555,112 and 9,738,720”, the “Binding to rat HER2” value in the assay with rat HER2 is “does not bind”. Moreover, the “Functional activity of HER2” value with HER2 is on record as “inhibit the functional activity of HER2”.
